From patent US20220010021A1 (Sanofi, published 2022)

T1: human beta-Klotho (KLB) (human, UniProt Q86Z14 53-997)
T1 construct: Bought protein; also called human KLB; β-Klotho
T1 sequence (looked up): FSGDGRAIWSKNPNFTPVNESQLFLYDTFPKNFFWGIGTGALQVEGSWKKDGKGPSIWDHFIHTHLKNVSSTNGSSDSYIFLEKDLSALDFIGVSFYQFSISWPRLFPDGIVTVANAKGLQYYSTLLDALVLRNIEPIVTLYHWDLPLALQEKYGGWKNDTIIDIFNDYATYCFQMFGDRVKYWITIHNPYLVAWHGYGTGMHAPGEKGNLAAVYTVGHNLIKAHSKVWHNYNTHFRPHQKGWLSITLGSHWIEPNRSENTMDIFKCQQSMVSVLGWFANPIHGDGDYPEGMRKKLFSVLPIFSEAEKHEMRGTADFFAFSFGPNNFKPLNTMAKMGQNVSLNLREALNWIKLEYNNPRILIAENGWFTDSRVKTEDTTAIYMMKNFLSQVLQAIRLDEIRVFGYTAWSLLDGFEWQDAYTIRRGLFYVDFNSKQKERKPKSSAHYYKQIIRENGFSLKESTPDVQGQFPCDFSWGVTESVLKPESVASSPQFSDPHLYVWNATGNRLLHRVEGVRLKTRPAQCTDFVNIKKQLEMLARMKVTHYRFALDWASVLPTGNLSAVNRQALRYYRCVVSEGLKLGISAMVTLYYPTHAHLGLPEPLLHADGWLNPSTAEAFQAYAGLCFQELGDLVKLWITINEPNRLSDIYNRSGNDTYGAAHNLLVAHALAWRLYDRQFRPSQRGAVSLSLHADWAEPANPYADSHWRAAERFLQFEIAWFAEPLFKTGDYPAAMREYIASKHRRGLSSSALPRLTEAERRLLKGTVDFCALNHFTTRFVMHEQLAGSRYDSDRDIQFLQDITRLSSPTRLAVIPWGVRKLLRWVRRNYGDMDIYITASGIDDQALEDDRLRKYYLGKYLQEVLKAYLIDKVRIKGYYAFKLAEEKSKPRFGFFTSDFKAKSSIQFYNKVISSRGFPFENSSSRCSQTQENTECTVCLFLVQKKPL


Tests used:
[1] = molecular target: cell surface receptor composed of FGFR1c and co-receptor beta-Klotho (KLB) (human, UniProt P11362 22-822; Q86Z14 1-1044); experiment: cell-based or functional assay; as to Mean E max, Luciferase reporter gene assay: reference of the scale not given here
[2] = molecular target: T1, human beta-Klotho (KLB); experiment: BLI off-rate screening (Octet), crude supernatant;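 also: supernatants tested at 25 µg/mL, dissociation from biosensors recorded in D-PBS with 0.1% BSA over 1800 s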

Chain of cell surface receptor composed of FGFR1c and co-receptor beta-Klotho (KLB) (P11362 22-822, chain 1 of 2): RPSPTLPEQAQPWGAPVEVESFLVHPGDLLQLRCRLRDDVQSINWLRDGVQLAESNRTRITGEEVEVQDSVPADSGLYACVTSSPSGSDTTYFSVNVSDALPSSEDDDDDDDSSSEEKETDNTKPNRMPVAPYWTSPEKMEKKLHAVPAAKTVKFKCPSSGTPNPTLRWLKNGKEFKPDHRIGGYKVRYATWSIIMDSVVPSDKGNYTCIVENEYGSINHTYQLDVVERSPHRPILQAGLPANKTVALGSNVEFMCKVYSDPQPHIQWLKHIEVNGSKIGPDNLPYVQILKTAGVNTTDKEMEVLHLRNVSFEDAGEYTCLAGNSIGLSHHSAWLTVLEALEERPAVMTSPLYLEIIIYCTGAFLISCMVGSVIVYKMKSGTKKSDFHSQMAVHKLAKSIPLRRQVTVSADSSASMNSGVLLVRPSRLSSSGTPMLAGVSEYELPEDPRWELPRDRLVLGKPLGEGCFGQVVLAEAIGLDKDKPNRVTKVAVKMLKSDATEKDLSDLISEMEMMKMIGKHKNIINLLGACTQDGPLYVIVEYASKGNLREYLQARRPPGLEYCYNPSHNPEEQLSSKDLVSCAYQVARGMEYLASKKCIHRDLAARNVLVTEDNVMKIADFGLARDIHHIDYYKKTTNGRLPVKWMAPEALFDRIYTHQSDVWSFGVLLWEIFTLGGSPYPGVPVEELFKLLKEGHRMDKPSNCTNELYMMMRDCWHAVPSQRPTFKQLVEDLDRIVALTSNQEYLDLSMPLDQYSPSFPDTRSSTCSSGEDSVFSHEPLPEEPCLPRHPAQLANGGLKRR
Chain of cell surface receptor composed of FGFR1c and co-receptor beta-Klotho (KLB) (Q86Z14 whole entry, chain 2 of 2): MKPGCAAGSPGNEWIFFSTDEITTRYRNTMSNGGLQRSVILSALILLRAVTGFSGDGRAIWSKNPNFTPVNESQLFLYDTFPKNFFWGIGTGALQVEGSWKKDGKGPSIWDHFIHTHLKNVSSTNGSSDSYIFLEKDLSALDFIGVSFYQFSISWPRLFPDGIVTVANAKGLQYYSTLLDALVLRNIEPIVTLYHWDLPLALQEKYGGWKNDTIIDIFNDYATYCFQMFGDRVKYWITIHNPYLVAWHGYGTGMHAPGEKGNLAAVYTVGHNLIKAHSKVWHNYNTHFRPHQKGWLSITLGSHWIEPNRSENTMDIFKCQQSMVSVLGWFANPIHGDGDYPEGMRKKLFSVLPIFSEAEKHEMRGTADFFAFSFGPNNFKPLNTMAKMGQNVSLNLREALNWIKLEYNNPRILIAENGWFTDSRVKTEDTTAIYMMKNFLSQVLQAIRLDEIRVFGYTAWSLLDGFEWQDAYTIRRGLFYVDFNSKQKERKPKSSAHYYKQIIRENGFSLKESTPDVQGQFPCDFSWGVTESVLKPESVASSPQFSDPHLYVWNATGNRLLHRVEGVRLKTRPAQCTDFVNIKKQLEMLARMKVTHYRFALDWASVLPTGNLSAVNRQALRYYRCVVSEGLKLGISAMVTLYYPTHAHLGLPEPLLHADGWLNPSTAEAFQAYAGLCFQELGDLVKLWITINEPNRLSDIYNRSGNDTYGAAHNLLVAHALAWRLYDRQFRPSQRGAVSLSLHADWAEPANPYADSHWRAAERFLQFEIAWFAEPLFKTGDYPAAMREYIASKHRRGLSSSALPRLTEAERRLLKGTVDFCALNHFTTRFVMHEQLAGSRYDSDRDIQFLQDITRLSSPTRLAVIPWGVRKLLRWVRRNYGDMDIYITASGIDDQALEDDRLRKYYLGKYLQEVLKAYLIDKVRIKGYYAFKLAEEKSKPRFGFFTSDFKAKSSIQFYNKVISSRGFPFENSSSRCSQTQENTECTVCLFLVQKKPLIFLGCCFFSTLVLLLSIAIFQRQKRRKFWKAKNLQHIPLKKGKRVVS

Binder	Mean E max, Luciferase reporter gene assay [1] [%]	Mean EC50, Luciferase reporter gene assay [1] [nM]	koff [2] [s⁻¹]
16H7 light chain variant H33V (antibody, IgG4, V domains shown, IgG4 backbone) VH: not shown VL: SYVLTQPPSVSVAPGQTARITCGGNNIGSESVVWYQQKPGQAPVLVVYDDSDRPSGIPERFSGSNSGNTATLTISRVEAGDEADYYCQVWDGNSDHVVFGGGTKLTVLG	104	0.147	0.00018
16H7 light chain variant N93T (antibody, IgG4, V domains shown, IgG4 backbone) VH: not shown VL: SYVLTQPPSVSVAPGQTARITCGGNNIGSESVHWYQQKPGQAPVLVVYDDSDRPSGIPERFSGSNSGNTATLTISRVEAGDEADYYCQVWDGTSDHVVFGGGTKLTVLG	103	0.161	3.1e-05
16H7 light chain variant H33Y (antibody, IgG4, V domains shown, IgG4 backbone) VH: not shown VL: SYVLTQPPSVSVAPGQTARITCGGNNIGSESVYWYQQKPGQAPVLVVYDDSDRPSGIPERFSGSNSGNTATLTISRVEAGDEADYYCQVWDGNSDHVVFGGGTKLTVLG	98	0.12	7.5e-05
16H7 light chain variant H96Y (antibody, IgG4, V domains shown, IgG4 backbone) VH: not shown VL: SYVLTQPPSVSVAPGQTARITCGGNNIGSESVHWYQQKPGQAPVLVVYDDSDRPSGIPERFSGSNSGNTATLTISRVEAGDEADYYCQVWDGNSDYVVFGGGTKLTVLG	103	0.134	6.9e-05
16H7 light chain variant N93S (antibody, IgG4, V domains shown, IgG4 backbone) VH: not shown VL: SYVLTQPPSVSVAPGQTARITCGGNNIGSESVHWYQQKPGQAPVLVVYDDSDRPSGIPERFSGSNSGNTATLTISRVEAGDEADYYCQVWDGSSDHVVFGGGTKLTVLG	101	0.105	3.4e-05
16H7 light chain variant H96T (antibody, IgG4, V domains shown, IgG4 backbone) VH: not shown VL: SYVLTQPPSVSVAPGQTARITCGGNNIGSESVHWYQQKPGQAPVLVVYDDSDRPSGIPERFSGSNSGNTATLTISRVEAGDEADYYCQVWDGNSDTVVFGGGTKLTVLG	110	0.11	1.8e-05
16H7 light chain variant H96G (antibody, IgG4, V domains shown, IgG4 backbone) VH: not shown VL: SYVLTQPPSVSVAPGQTARITCGGNNIGSESVHWYQQKPGQAPVLVVYDDSDRPSGIPERFSGSNSGNTATLTISRVEAGDEADYYCQVWDGNSDGVVFGGGTKLTVLG	95	0.13	0.00015
16H7 light chain variant N93Y (antibody, IgG4, V domains shown, IgG4 backbone) VH: not shown VL: SYVLTQPPSVSVAPGQTARITCGGNNIGSESVHWYQQKPGQAPVLVVYDDSDRPSGIPERFSGSNSGNTATLTISRVEAGDEADYYCQVWDGYSDHVVFGGGTKLTVLG	105	0.108	6.5e-05
16H7 light chain variant N93D (antibody, IgG4, V domains shown, IgG4 backbone) VH: not shown VL: SYVLTQPPSVSVAPGQTARITCGGNNIGSESVHWYQQKPGQAPVLVVYDDSDRPSGIPERFSGSNSGNTATLTISRVEAGDEADYYCQVWDGDSDHVVFGGGTKLTVLG	108	0.123	3.8e-05
16H7 light chain variant N93R (antibody, IgG4, V domains shown, IgG4 backbone) VH: not shown VL: SYVLTQPPSVSVAPGQTARITCGGNNIGSESVHWYQQKPGQAPVLVVYDDSDRPSGIPERFSGSNSGNTATLTISRVEAGDEADYYCQVWDGRSDHVVFGGGTKLTVLG	100	0.186	5e-05
16H7 light chain variant H96S (antibody, IgG4, V domains shown, IgG4 backbone) VH: not shown VL: SYVLTQPPSVSVAPGQTARITCGGNNIGSESVHWYQQKPGQAPVLVVYDDSDRPSGIPERFSGSNSGNTATLTISRVEAGDEADYYCQVWDGNSDSVVFGGGTKLTVLG	102	0.097	3e-05
16H7 light chain variant H96D (antibody, IgG4, V domains shown, IgG4 backbone) VH: not shown VL: SYVLTQPPSVSVAPGQTARITCGGNNIGSESVHWYQQKPGQAPVLVVYDDSDRPSGIPERFSGSNSGNTATLTISRVEAGDEADYYCQVWDGNSDDVVFGGGTKLTVLG	100	0.111	2.2e-05
16H7 light chain variant N93C (antibody, IgG4, V domains shown, IgG4 backbone) VH: not shown VL: SYVLTQPPSVSVAPGQTARITCGGNNIGSESVHWYQQKPGQAPVLVVYDDSDRPSGIPERFSGSNSGNTATLTISRVEAGDEADYYCQVWDGCSDHVVFGGGTKLTVLG	107	0.148	5.8e-05
16H7 light chain variant N93F (antibody, IgG4, V domains shown, IgG4 backbone) VH: not shown VL: SYVLTQPPSVSVAPGQTARITCGGNNIGSESVHWYQQKPGQAPVLVVYDDSDRPSGIPERFSGSNSGNTATLTISRVEAGDEADYYCQVWDGFSDHVVFGGGTKLTVLG	100	0.165	2.2e-06
16H7 light chain variant H96R (antibody, IgG4, V domains shown, IgG4 backbone) VH: not shown VL: SYVLTQPPSVSVAPGQTARITCGGNNIGSESVHWYQQKPGQAPVLVVYDDSDRPSGIPERFSGSNSGNTATLTISRVEAGDEADYYCQVWDGNSDRVVFGGGTKLTVLG	102	0.095	0.00014
16H7 light chain variant N93A (antibody, IgG4, V domains shown, IgG4 backbone) VH: not shown VL: SYVLTQPPSVSVAPGQTARITCGGNNIGSESVHWYQQKPGQAPVLVVYDDSDRPSGIPERFSGSNSGNTATLTISRVEAGDEADYYCQVWDGASDHVVFGGGTKLTVLG	101	0.108	7.5e-06
16H7 light chain variant H96L (antibody, IgG4, V domains shown, IgG4 backbone) VH: not shown VL: SYVLTQPPSVSVAPGQTARITCGGNNIGSESVHWYQQKPGQAPVLVVYDDSDRPSGIPERFSGSNSGNTATLTISRVEAGDEADYYCQVWDGNSDLVVFGGGTKLTVLG	98	0.176	0.00013
16H7 light chain variant H96K (antibody, IgG4, V domains shown, IgG4 backbone) VH: not shown VL: SYVLTQPPSVSVAPGQTARITCGGNNIGSESVHWYQQKPGQAPVLVVYDDSDRPSGIPERFSGSNSGNTATLTISRVEAGDEADYYCQVWDGNSDKVVFGGGTKLTVLG	98	0.179	6.4e-05
16H7 light chain variant H96W (antibody, IgG4, V domains shown, IgG4 backbone) VH: not shown VL: SYVLTQPPSVSVAPGQTARITCGGNNIGSESVHWYQQKPGQAPVLVVYDDSDRPSGIPERFSGSNSGNTATLTISRVEAGDEADYYCQVWDGNSDWVVFGGGTKLTVLG	103	0.155	0.00012
16H7 light chain variant N93V (antibody, IgG4, V domains shown, IgG4 backbone) VH: not shown VL: SYVLTQPPSVSVAPGQTARITCGGNNIGSESVHWYQQKPGQAPVLVVYDDSDRPSGIPERFSGSNSGNTATLTISRVEAGDEADYYCQVWDGVSDHVVFGGGTKLTVLG	108	0.139	4e-05
16H7 light chain variant H96E (antibody, IgG4, V domains shown, IgG4 backbone) VH: not shown VL: SYVLTQPPSVSVAPGQTARITCGGNNIGSESVHWYQQKPGQAPVLVVYDDSDRPSGIPERFSGSNSGNTATLTISRVEAGDEADYYCQVWDGNSDEVVFGGGTKLTVLG	100	0.122	1.1e-05
16H7 light chain variant H96V (antibody, IgG4, V domains shown, IgG4 backbone) VH: not shown VL: SYVLTQPPSVSVAPGQTARITCGGNNIGSESVHWYQQKPGQAPVLVVYDDSDRPSGIPERFSGSNSGNTATLTISRVEAGDEADYYCQVWDGNSDVVVFGGGTKLTVLG	91	0.13	4.1e-05
16H7 light chain variant H96Q (antibody, IgG4, V domains shown, IgG4 backbone) VH: not shown VL: SYVLTQPPSVSVAPGQTARITCGGNNIGSESVHWYQQKPGQAPVLVVYDDSDRPSGIPERFSGSNSGNTATLTISRVEAGDEADYYCQVWDGNSDQVVFGGGTKLTVLG	104	0.106	5e-05
16H7 light chain variant H96N (antibody, IgG4, V domains shown, IgG4 backbone) VH: not shown VL: SYVLTQPPSVSVAPGQTARITCGGNNIGSESVHWYQQKPGQAPVLVVYDDSDRPSGIPERFSGSNSGNTATLTISRVEAGDEADYYCQVWDGNSDNVVFGGGTKLTVLG	112	0.143	4.4e-05
